Test results from the DeepSol protein solubility set.

Experiment: soluble on expression in E. coli; label from the status in PepcDB or PDB records

| Sequence | soluble on expression in E. coli |
| --- | --- |
| MSLRLPMGLVAVLALVGTAAHAAPKGAEARMIATVDAEQARTLRFLEVMVNQNSGSRNLEGVRRLRDIVVPEFTALGFTSRWIPMERTGRAGHLVLTHKGRQGAKKLLLIGHLDTVFEPDSPFQTYVLNGEKATGPGVGDDKGGIAVILAAVRAMNAAGTLKGASIEVFLTGDEEEAGSPTEVARADLVAAARAADVALDFEGLSRENGRDMGSIARRSSQSWSLTVEAKSGHSSGVWGANAGDGAIYAAAKIVNAFRTELPEPWLTLNVGLIAGGAEAEVAEDNAHVSAQGKTNIIPGEVIARGDLRTLSPEQNRAAMRKMEEIVGRPYPGVTSARIAFSEGYPPMAPTEGNKALLARLNQVNATLGLPEMQPLDPMKRGAGDISFVAEYIDGLVGLGPHSTGDHAPGETVDVPSIWTQAKRAALLMTRLSAEKSAREGHHHHHH | soluble |
| MSLDIHEGNLMPAKRKLTMRHIRQMLRLAGSGTSSREIAVMLGIARSTVQDNLKRAAMAGLSWALASGLTDDVLEAKLFVHPGVKRGQRLRQEPDWGPLSIELKKPGVTLLILWEEYRSAHPDGYGYSRFCELFRGFEKRLSPTMRQEHIAGDKVFVDYSGKKVPIVDRKTGEIREAELFLGVLGASSYCTRGRSVHLGELLRRAWIFQHLGNREGHHHHHH | soluble |
| TGQIGTKGTVLFCNPTETEQYLKCNVEMFVQGASSANDFKKGYTFDLYNSNGEELGVKFGDMISSSSFHLKAFYRDPTHTRDQAGYRFWKSLAETLDYPYCKINNSVYAQSTTRSDKAEFTFDAKYYPHGFPVEIYLNDTFHGLYTLRLKKTRENYTLNNADLNHIFLDNAEYRARLNTSFNYAQWEIKSPKMKGYSDQGPIPATFPTVQAAIDNLFNFTKGLSANYANHATVLNLPHWVLFYILAELTGHWDIDGNNYNIFTWDGVHWSILPYDMDLTLNWYRNSGATQTGFLINVDIWQTFRTVYSNEIKAMWTKFRNEKSLTTEKVVNTYRNVAKDIPREVYVADKAKWGLATDFTGNDYPNIEQIYRYITARIAYL | not soluble |
| MGSDKIHHHHHHMFDWNDVRFFLALQRNGKLLGAARQMGTTHATVARHIAALEKVLGQPLFVQQADGYSLTAAGRQLLPLAESLENTASQMLDSGSKGHAEVSGVVRLGAPEGLGALFLARHMPALMARYPELEIDLVAVPRFVSVTSREVDIAIALERPQANMVVTRKLTDYCLGLYATQAYLAAHPPIREREDLNGHAILAYVDDLLFTRELMYHHGLCRHPSMPLRSTSVVAQREAALADGGIAVLPYYTTYDDPRLTQILPELRIIRSYWISARSNIRRTLRYRVVWDYVVELCQNMQWLLLQEEQNRSIETA | not soluble |
| AKVIFVLAMDVSGKIASSVESWSSFEDRKNFRKITTEIGNVVMGRITFEEIGRPLPERLNVVLTRRPKTSNNPSLVFFNGSPADVVKFLEGKGYERVAVIGGKTVFTEFLREKLVDELFVTVEPYVFGKGIPFFDEFEGYFPLKLLEMRRLNERGTLFLKYSVEKSHR | soluble |
| MSAALEKPQIIAHIQKSLNYTVFESKWIPCSAKFVCMGNFARGTGVMQIYEIQHGELQLVREIEKSKPIKCGTFGATSLQQRHLATGDFDGNLNVWNLEVPDSPVYSVKAHKEIINAIDGVGGLGIGDGAPEIVTGSRDGTVKVWDSRQKDTPVVNMEPTEGETKRDCWTVAFGHAFNDQDRCVCAGYDNGDIKLFDLRNMSLRWEKNIRNGVCSVEFDRKDINMNKLVATSLEGKFHVFDMRTQHPSKGFASVSEKAHKSTIWQVRHLPQNRDVFMTAGGAGNLHLWKYEYPAQRSKKGADDVEMGVAGSVNLLQNVTLSTQPISSLDWSPDKQGLCVCSSFDQSVRVLIVTKLNTV | soluble |
| MTELLVTPKSLSHMETLIDLGADAFVIGEQKFGLRLPGEFNRQQMTEAVALAHKNDKKVYAAVNGLFHNYHLDAVEDYINFLHEIRVDRIIFGDPAVVMYVKAQENPIPLHWNAETLVTNHFQCNYWGKRGASRAVLARELNLDEIINIKENSNVEIEVQVQGMTCMFQSKRMLLGNYYTFQDRQMKIERRNDEQSLLLYDEERQNNYPVYEDYNGTHIMSPNDICLIEELAPFFEAGIDSFKIDGILQTEEYINVVTEQYRQAIDLYNEDPEIYEDEKFMLMDPIEEIQPDHRPFDEGFLYKQTVY | not soluble |
| MHIDNEDALFDWLSDELSPITDADPNALAKYVLALVKKPDKGHDELKAFTNEQLNVFLTDHTAPFVDKVFEALTSKSYMPASTAPTSASATAPDLKKEKAPAEKPSKPTAPPGVQKSSSSPSASKAESRPLRKRISPPPSENREKEKQSRDKERRRSRSPRDRRGRATTSRSGRTSSSDRDRHSKRRSRSRSRSSSGSRTPPYKSRSSRRRCKDFEERGYCIRGDQCPYYHGRDPVVVDENALGSMVPLPATAPNFSLPPPGYNPLNPPPPGVVVAAGEYNPEAPALNNYSIPPPPIPGQWQQPHVAAQYVPQSVSSYSQPPPAAAQGVVTQPGSFRGAPRGRGNIRGRGGFARGGFTGAINRDNCTLQVAKIPPEMNTIAKLNEHFATFGTVDNIQVRYNGEIDSALVTYASKFDAGKAYKSPTPVLNNRFIKVFWHNPGGEGSENATGKPSSPTSPPKPVEKPKIATVQESKFVSVAAQNYRKQIQDAKERLTKEKSILSTLVQAQNQHNIILDKWMVKQKELLIKARTSTDETDKKNATKLVKHLHKKIKACKEEVDGILLKISEKSMVVDEIAAQIEELKNPQKSDDSTRKRKAGSDGDEPQSKMSSVVIVRGVTDELVTDLMAHMEKFGEVFDHSVKADDDGLITAVFPFRKTGDALKAMADGKVLNGVDLEMELKTERIEEIPSTDTNMSADQLLAAIPSNLESDEEDDLLND | not soluble |
| LPSGIIIKGIGGFYYVKTENGIYECKARGVFRKDSKIPLPGDEVVISVIDEEKKKGYIEEICERKIQLIRPAVANINQIALVVSVKSPLPDFVLLDKLLITVMQKELNAIICINKIDLDEGYKDVIIDCYKGTGVETVCVSSVLNVGFEQLAKMLEGKTTVFAGQSGVGKSTILNKILDSYVMETGEISDKIERGRHTTRHAELLELKSGGFVVDTPGFSSFELSEIEPKELQNYYPEFRDYIGKCRFAGCSHISEPGCMVKSALENGMINKDRYGRYIIFYNMLKDKQRRKYS | not soluble |
| MAHHHHHHMSATRDGSRSHSDGGFDGRSLLSEQTKLLRESTPADINFIQFLKLRLSAQQRATAQRNYWQRVQREAADSMNANTAHRQGRGGISASVAPVSTSAAGRESEASSNHIGSGRRNWHAAGSAEGASFSTYDAEHMMLEHSTASFGTLSKQDAFTRATSHGAVPPPTVHQHSFEDLRAAVLKRRSTPASELTDFVAVSTAELSEDGNSSQRRPSGPLQEEDAYALAPFIASSYSAAAAAAIDERPAMACGKPQVPVDVDEMKDVALEPCPHCGRTFAPARLERHVVTCERHRNTLPKTKGDMKSCRAFSSRKKPDRTAGGDGAAASAAATANTAGAAPGGPLRWSTDTAIKPEKWRKQSAQLRNAMAGASVAVDDDRVLCPSCGRHFSDDVAARHIPICKSKGGRAA | not soluble |
| MNTSELETLIRTILSEQLTTPAQTPVQPQGKGIFQSVSEAIDAAHQAFLRYQQCPLKTRSAIISAMRQELTPLLAPLAEESANETGMGNKEDKFLKNKAALDNTPGVEDLTTTALTGDGGMVLFEYSPFGVIGSVAPSTNPTETIINNSISMLAAGNSIYFSPHPGAKKVSLKLISLIEEIAFRCCGIRNLVVTVAEPTFEATQQMMAHPRIAVLAITGGPGIVAMGMKSGKKVIGAGAGNPPCIVDETADLVKAAEDIINGASFDYNLPCIAEKSLIVVESVAERLVQQMQTFGALLLSPADTDKLRAVCLPEGQANKKLVGKSPSAMLEAAGIAVPAKAPRLLIALVNADDPWVTSEQLMPMLPVVKVSDFDSALALALKVEEGLHHTAIMHSQNVSRLNLAARTLQTSIFVKNGPSYAGIGVGGEGFTTFTIATPTGEGTTSARTFARSRRCVLTNGFSIR | not soluble |
| MAHRTFRLCRLRIRRLRDHPLRQDGMVDYSTTATTNTLYLLHTGHHVPPPPSHRNPPFSFRSFRPPIQPCSPNSHHVDNVIILASAIK | not soluble |
| QVQLQQSGAELVKPGASVKMSCKASGYTFTTYPIEWMKQNHGKSLEWIGNFHPYSDDTNYNEKFKGKAKLTVEKSSSTVYLEFSRLTSDDSAVYYCAIHYGSAYAMDYWGQGTSVTVSS | soluble |
| MAHHHHHHMQRSMMRELCYVGSVALSPMRPKKNAFKLRERGETTRLFCANSEMSNFYGINESGFSNTRPPPYLLRFDKCNDVIAYTNEIDNESLKQIKNLAKLHIIKGHITILPDVHLGKGIIIGSVFLTKHFIIPNGVGVDIGCGVLCVKINKLKKKNLHEGVINNIYKKIKRNIPLSFDYHEKEVFDAKNVLDELVAKYASSNMAHIMNPKHLKQMGTLGGGNHFIEIAYDASGDVKAEPINGNLSGEAHQNDNTQKYACQQNHYPESDIYILIHSGSRNIGKSTAEFYDDLASHESKVKRNDLAYLDLRKKHGQNYLRDMQLCQEYAKYNRIYMMKIIEQIIKEELNCTLDWQNAINIHHNFCNHELVNYFHNGEVKKEYMYVTRKGATSSMKNQLGIIPGNMKVGSYIVRGKGNKLSYNSCSHGCGRVLSRTHAKKIINQADFVNIMKGVRCDTSAKIRDEATQAYKNLNKVLRNQDSLIHVVRRLLPLINVKGG | not soluble |
| SASLIQRIARQACLTFRGSSTGSEGPAPGFPENLSLLKSLLTQVRAEDLNIAPRKALPQPLPRNLPPVTYMHIYETEGFSLGVFLLKSGTCIPLHDHPGMHGMLKVLYGTVRISCMDKLDTGAGHRRPPPEQQFEPPLQPLEREAVRPGVLRSRAEYTEASGPCVLTPHRDNLHQIDAVDGPAAFLDILAPPYDPEDGRDCHYYRVVEPIRPKEASGSACDLPREVWLLETPQADDFWCEGEPYPGPKVLP | soluble |
| MEEDNQQDQNNQYVIYHPFFSEGCHFYFIISCTNSFIRVALKIGLIGDSQIGKTSLMVKYVEGSFDEDYIQTLGVNFMDKKIQIRNTTITFSIWDLGGQKEFINMLPLVSNDAVAILFMFDLTRKSTLNSIKEWYRQVRGFNKTAIPFLVGTKYDQFIDLSFQDQIEITQQAKKFGSAMKAPVIFCSTSHSINVQKIFKIILSKAFDLKLNLDEIVNVGEPILIYK | not soluble |
| GPGSMQEERERAERSKLLREEHDFWVEFRDRERAERLKYMTEQEIVELLQREADEATRESNRADQLHQRAMEDALRRRHITADVQRGGEDTVLARRKGEVQVDGIRLAAERETSVMVGAMTVAERTRRAGVERQQREEDLTAKCQQLMTELEEARASATRAQRYQKRAEDDLTREQENTRKEQSDAAACKETNDKLLKELAEVRQQLTASEAERKKAEAAKVQAAREVAQKEKELTCLRKRDDELAAQQASQKAAAEDEKQRAFTFQEELKTYRDALEKEQAARNRAETELAALREQAKTLEAKVAAASAPDPKQVADNMRKLKAVADDARKAQADLVKERQARESAEAAAVEARDALAKEQAVREKVEKEAQRALAASSVSVLHVQKAESDRKKLAEAEKKLEEMRRARNRDEVEKAALKREMEKVKRDLEGEASARAQFEQLASQAVSADDRVPQREVDQLRKALQISQEQCNAARRDTVACQQNAAREIALLKAWCERLQQQHRMQQQVLQSDEEFTPRTATPTPHCRTPRSVRKRIPQDLVADQRQAEEKAASDQRIRELEAHVTRLQVDLGRSKDQERRAIAGAEQARKALEASTATSMPDSGKASPGPSERGIAKEQEAKERAMVQRLNALERECAEAQKKYDDLVVAHRQSEAARCEAELQVAAQRAQIEQRQREEPQSYTSALGNYETSRLEPISATAGESTSALEERIKELERHLAEERAARQAAERRAEESQKLCAAPGTDAMSAAKRAEANVSSSGAGAKGKPQKVKSACC | not soluble |
